Assay [1] concerns the target T1, human C1q protein (Calbiochem) (human, UniProt P02745 23-245; P02746 28-253; P02747 29-245).
T1 construct: bought; also called hC1q
The assay is described as follows: ELISA, antibody on the plate, hC1q 3 µg/mL. (In an ELISA, binding on a coated surface is turned into a signal by an enzyme label.)

The target of assay [2] is T2, hCTLA4-His-BAP (human CTLA4 extracellular region with C-terminal His-tag and BAP-tag) (human, biotin on the BAP-tag).
T2 construct: also called hCTLA4-His-Biotin
The assay is described as follows: SPR 37C, ATP 10 µM; ATP 10 µM.

Assay [3] addresses T2, hCTLA4-His-BAP (human CTLA4 …). Put plainly: SPR 37C, ATP 100 µM; ATP 100 µM.
For assay [4] the target is unchanged. Put plainly: SPR 37C, hCTLA4 1000 nM, no ATP; no ATP; binding amount at 1000 nM hCTLA4.
The target is the same in assay [5]. Put plainly: SPR 37C, hCTLA4 1000 nM, ATP 1 µM; ATP 1 µM; binding amount at 1000 nM hCTLA4.
The target is the same in assay [6]. The assay is described as follows: SPR 37C, hCTLA4 1000 nM, ATP 10 µM; ATP 10 µM; binding amount at 1000 nM hCTLA4.
Assay [7] has the same target. Put plainly: SPR 37C, hCTLA4 1000 nM, ATP 100 µM; ATP 100 µM; binding amount at 1000 nM hCTLA4.

T1 sequence (P02745 23-245 limits assumed, chain 1 of 3): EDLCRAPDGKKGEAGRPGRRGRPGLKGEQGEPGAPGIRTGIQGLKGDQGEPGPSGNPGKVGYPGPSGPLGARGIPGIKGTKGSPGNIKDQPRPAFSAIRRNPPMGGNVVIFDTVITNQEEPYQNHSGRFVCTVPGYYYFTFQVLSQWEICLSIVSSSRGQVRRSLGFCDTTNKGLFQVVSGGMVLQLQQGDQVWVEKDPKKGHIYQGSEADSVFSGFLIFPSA
T1 sequence (P02746 28-253 limits assumed, chain 2 of 3): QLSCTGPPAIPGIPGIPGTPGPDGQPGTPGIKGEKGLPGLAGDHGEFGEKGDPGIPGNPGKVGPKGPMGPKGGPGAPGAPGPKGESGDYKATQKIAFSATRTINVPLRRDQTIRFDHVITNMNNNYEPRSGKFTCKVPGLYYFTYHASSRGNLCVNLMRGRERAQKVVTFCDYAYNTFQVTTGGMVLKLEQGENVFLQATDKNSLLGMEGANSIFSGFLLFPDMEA
T1 sequence (P02747 29-245 limits assumed, chain 3 of 3): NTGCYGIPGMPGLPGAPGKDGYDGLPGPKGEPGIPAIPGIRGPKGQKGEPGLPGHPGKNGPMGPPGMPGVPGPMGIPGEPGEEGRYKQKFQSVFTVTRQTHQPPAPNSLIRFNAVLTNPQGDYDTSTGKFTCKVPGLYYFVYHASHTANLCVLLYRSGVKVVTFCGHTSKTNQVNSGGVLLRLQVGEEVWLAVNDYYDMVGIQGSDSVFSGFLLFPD
T2 sequence (chain, as listed by the source limits assumed): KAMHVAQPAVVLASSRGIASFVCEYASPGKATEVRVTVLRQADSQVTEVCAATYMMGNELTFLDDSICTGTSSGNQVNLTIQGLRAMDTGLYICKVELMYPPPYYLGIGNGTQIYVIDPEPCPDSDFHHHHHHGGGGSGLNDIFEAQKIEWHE

B1: H240-Kn462/L73-k0//H240-Hl441/L73-k0 (antibody)
heavy 1: QDQLVQSGAEVKKPGASVKVSCKASGFNIKDTYIQWVRQAPGQGLEWMGRIDPLRKQTKYREKFEGRVTITADTSTNTAYMELSSLRSEDTAVYYCVRSGREFDYWGQGTLVTVSSASTKGPSVFPLAPSSKSTSGGTAALGCLVKDYFPEPVTVSWNSGALTSGVHTFPAVLQSSGLYSLSSVVTVPSSSLGTQTYICNVNHKPSNTKVDKKVEPKSCDKTHTCPPCPAPEFQWGPMVFLFPPKPKDVLMISRTPEVTCVVVDVSDEEPEVKFNWYVDGVEVHNAKTKPREEQYNATYRVVSVLPVLHQDWLNGKEYKCKVSNDALPAPIEKTISKAKGQPREPQVCTLPPSRDELTKNQVSLWCLVKGFYPSDIAVEWESNGQPENNYKTTPPVLDSDGSFFLYSKLTVDKSRWQQGNVFSCSVMHEALHNHYTQKSLSLSP
heavy 2: QDQLVQSGAEVKKPGASVKVSCKASGFNIKDTYIQWVRQAPGQGLEWMGRIDPLRKQTKYREKFEGRVTITADTSTNTAYMELSSLRSEDTAVYYCVRSGREFDYWGQGTLVTVSSASTKGPSVFPLAPSSKSTSGGTAALGCLVKDYFPEPVTVSWNSGALTSGVHTFPAVLQSSGLYSLSSVVTVPSSSLGTQTYICNVNHKPSNTKVDKKVEPKSCDKTHTCPPCPAPELLAGPSVFLFPPKPKDVLMISRTPEVTCVVVDVSHEEPEVKFNWYVDGVEVHNAKTKPREEQYNATYRVVSVLPVLHQDWLNGKEYKCKVSNDALPAPIEETISKAKGQPREPQVYTLPPSRCELTKNQVSLSCAVKGFYPSDIAVEWESNGQPENNYKTTPPVLDSDGSFFLVSKLTVDKSRWQQGNVFSCSVMHEALHNHYTQKSLSLSP
light: DIQMTQSPSSLSASVGDRVTITCRASQDIHKYIAWYQQKPGQAPRLLIQYTSTLQPGVPSRFSGSGSGTDYTFTISSLQPEDIATYYCLQYEQLRTFGGGTKVEIKRTVAAPSVFIFPPSDEQLKSGTASVVCLLNNFYPREAKVQWKVDNALQSGNSQESVTEQDSKDSTYSLSSTLTLSKADYEKHKVYACEVTHQGLSSPVTKSFNRGEC
notes: also called EGL-ART5; ART5; copies: 1 + 1 + 2
B1: the binding result in assay [1] was “binds”.

B2: H240-Kn461/L73-k0//H240-Hl443/L73-k0 (antibody)
heavy 1: QDQLVQSGAEVKKPGASVKVSCKASGFNIKDTYIQWVRQAPGQGLEWMGRIDPLRKQTKYREKFEGRVTITADTSTNTAYMELSSLRSEDTAVYYCVRSGREFDYWGQGTLVTVSSASTKGPSVFPLAPSSKSTSGGTAALGCLVKDYFPEPVTVSWNSGALTSGVHTFPAVLQSSGLYSLSSVVTVPSSSLGTQTYICNVNHKPSNTKVDKKVEPKSCDKTHTCPPCPAPEFQWGPMVFLFPPKPKDVLMISRTPEVTCVVVDVSDEEPEVKFNWYVDGVEVHNAKTKPREEQYNATYRVVSVLPVLHQDWLNGKEYKCKVSNDALPAPEEKTISKAKGQPREPQVCTLPPSRDELTKNQVSLWCLVKGFYPSDIAVEWESNGQPENNYKTTPPVLDSDGSFFLYSKLTVDKSRWQQGNVFSCSVMHEALHNHYTQKSLSLSP
heavy 2: QDQLVQSGAEVKKPGASVKVSCKASGFNIKDTYIQWVRQAPGQGLEWMGRIDPLRKQTKYREKFEGRVTITADTSTNTAYMELSSLRSEDTAVYYCVRSGREFDYWGQGTLVTVSSASTKGPSVFPLAPSSKSTSGGTAALGCLVKDYFPEPVTVSWNSGALTSGVHTFPAVLQSSGLYSLSSVVTVPSSSLGTQTYICNVNHKPSNTKVDKKVEPKSCDKTHTCPPCPAPELLAGPSVFLFPPKPKDVLMISRTPEVTCVVVDVSHEEPEVKFNWYVDGVEVHNAKTKPREEQYNATYRVVSVLPVLHQDWLNGKEYKCKVSNDALPAPEEETISKAKGQPREPQVYTLPPSRCELTKNQVSLSCAVKGFYPSDIAVEWESNGQPENNYKTTPPVLDSDGSFFLVSKLTVDKSRWQQGNVFSCSVMHEALHNHYTQKSLSLSP
light: DIQMTQSPSSLSASVGDRVTITCRASQDIHKYIAWYQQKPGQAPRLLIQYTSTLQPGVPSRFSGSGSGTDYTFTISSLQPEDIATYYCLQYEQLRTFGGGTKVEIKRTVAAPSVFIFPPSDEQLKSGTASVVCLLNNFYPREAKVQWKVDNALQSGNSQESVTEQDSKDSTYSLSSTLTLSKADYEKHKVYACEVTHQGLSSPVTKSFNRGEC
notes: also called EGL-ART8; ART8; copies: 1 + 1 + 2
As to B2, in assay [1], the binding result is recorded as “binds”.

B3: H240-Kn443/L73-k0//H240-Hl408/L73-k0 (antibody)
heavy 1: QDQLVQSGAEVKKPGASVKVSCKASGFNIKDTYIQWVRQAPGQGLEWMGRIDPLRKQTKYREKFEGRVTITADTSTNTAYMELSSLRSEDTAVYYCVRSGREFDYWGQGTLVTVSSASTKGPSVFPLAPSSKSTSGGTAALGCLVKDYFPEPVTVSWNSGALTSGVHTFPAVLQSSGLYSLSSVVTVPSSSLGTQTYICNVNHKPSNTKVDKKVEPKSCDKTHTCPPCPAPEFQWGPMVFLFPPKPKDTLMISRTPEVTCVVVDVSDEEPEVKFNWYVDGVEVHNAKTKPREEQYNATYRVVSVLTVLHQDWLNGKEYKCKVSNDALPAPIEKTISKAKGQPREPQVCTLPPSRDELTKNQVSLWCLVKGFYPSDIAVEWESNGQPENNYKTTPPVLDSDGSFFLYSKLTVDKSRWQQGNVFSCSVMHEALHNHYTQKSLSLSP
heavy 2: QDQLVQSGAEVKKPGASVKVSCKASGFNIKDTYIQWVRQAPGQGLEWMGRIDPLRKQTKYREKFEGRVTITADTSTNTAYMELSSLRSEDTAVYYCVRSGREFDYWGQGTLVTVSSASTKGPSVFPLAPSSKSTSGGTAALGCLVKDYFPEPVTVSWNSGALTSGVHTFPAVLQSSGLYSLSSVVTVPSSSLGTQTYICNVNHKPSNTKVDKKVEPKSCDKTHTCPPCPAPELLAGPSVFLFPPKPKDTLMISRTPEVTCVVVDVSHEEPEVKFNWYVDGVEVHNAKTKPREEQYNATYRVVSVLTVLHQDWLNGKEYKCKVSNDALPAPIEETISKAKGQPREPQVYTLPPSRCELTKNQVSLSCAVKGFYPSDIAVEWESNGQPENNYKTTPPVLDSDGSFFLVSKLTVDKSRWQQGNVFSCSVMHEALHNHYTQKSLSLSP
light: DIQMTQSPSSLSASVGDRVTITCRASQDIHKYIAWYQQKPGQAPRLLIQYTSTLQPGVPSRFSGSGSGTDYTFTISSLQPEDIATYYCLQYEQLRTFGGGTKVEIKRTVAAPSVFIFPPSDEQLKSGTASVVCLLNNFYPREAKVQWKVDNALQSGNSQESVTEQDSKDSTYSLSSTLTLSKADYEKHKVYACEVTHQGLSSPVTKSFNRGEC
notes: also called EGL-ART3; ART3; copies: 1 + 1 + 2
For B3, the binding result in assay [1] is reported as “binds”.

B4: H240-Kn494/L73-k0//H240-Hl514/L73-k0 (antibody)
heavy 1: QDQLVQSGAEVKKPGASVKVSCKASGFNIKDTYIQWVRQAPGQGLEWMGRIDPLRKQTKYREKFEGRVTITADTSTNTAYMELSSLRSEDTAVYYCVRSGREFDYWGQGTLVTVSSASTKGPSVFPLAPSSKSTSGGTAALGCLVKDYFPEPVTVSWNSGALTSGVHTFPAVLQSSGLYSLSSVVTVPSSSLGTQTYICNVNHKPSNTKVDKKVEPKSCDKTHTCPPCPAPEFQWGPMVFLFPPKPKDVLMISRTPEVTCVVVDVSDEEPEVKFNWYVDGVEVHNAKTKPREEQYNATYRVVSVLPVLHQDWLNGKEYKCKVSNKALPAPEEKTISKAKGQPREPQVCTLPPSRDELTKNQVSLWCLVKGFYPSDIAVEWESNGQPENNYKTTPPVLDSDGSFFLYSKLTVDKSRWQQGNVFSCSVMHEALHNHYTQKSLSLSP
heavy 2: QDQLVQSGAEVKKPGASVKVSCKASGFNIKDTYIQWVRQAPGQGLEWMGRIDPLRKQTKYREKFEGRVTITADTSTNTAYMELSSLRSEDTAVYYCVRSGREFDYWGQGTLVTVSSASTKGPSVFPLAPSSKSTSGGTAALGCLVKDYFPEPVTVSWNSGALTSGVHTFPAVLQSSGLYSLSSVVTVPSSSLGTQTYICNVNHKPSNTKVDKKVEPKSCDKTHTCPPCPAPELLGGPSVFLFPPKPKDVLMISRTPEVTCVVVDVSHEEPEVKFNWYVDGVEVHNAKTKPREEQYNATYRVVSVLPVLHQDWLNGKEYKCKVSNDALPAPEEETISKAKGQPREPQVYTLPPSRCELTKNQVSLSCAVKGFYPSDIAVEWESNGQPENNYKTTPPVLDSDGSFFLVSKLTVDKSRWQQGNVFSCSVMHEALHNHYTQKSLSLSP
light: DIQMTQSPSSLSASVGDRVTITCRASQDIHKYIAWYQQKPGQAPRLLIQYTSTLQPGVPSRFSGSGSGTDYTFTISSLQPEDIATYYCLQYEQLRTFGGGTKVEIKRTVAAPSVFIFPPSDEQLKSGTASVVCLLNNFYPREAKVQWKVDNALQSGNSQESVTEQDSKDSTYSLSSTLTLSKADYEKHKVYACEVTHQGLSSPVTKSFNRGEC
notes: also called EGL-ART10; ART10; copies: 1 + 1 + 2
In the case of B4, the binding result in assay [1] was “binds”.

B5: 04H1207-G1m/04L1086-lam1 (antibody, human IgG1, lambda, V domains shown)
VH: EVQLVESGGGLVKPGGSLRLSCAASGFTFSSKTMNWVRQAPGKGLEWVSSISTRSGYIYYAESVKGRFTISRDNAKNSLYLQMNSLRAEDTAVYYCARYGKREDMLWVFDYWGQGTLVTVSS
VL: QSALTQPPSASGSPGQTVTISCDGPSTGVGDYNYVHWYQQHPGKAPKLMIYFTSKKPSGVPDRFSGSKSGNTASLTVSGLQAEDEADYFCQTYAAPLGPMFGGGTKLTVLG
Broadly, the Kd is the equilibrium constant for the complex coming apart. Regarding B5, the figures for the dissociation constant (Kd) in assay [2] and in assay [3] were 330 nM and 59 nM, respectively. The “Binding to Human CTLA4” value in assay [4] was 0.013 per unit amount of antibody; in assay [5] it was 0.047 per unit amount of antibody; in assay [6], 0.137 per unit amount of antibody; in assay [7], 0.196 per unit amount of antibody.

B6: 04H1208-G1m/04L1086-lam1 (antibody, human IgG1, lambda, V domains shown)
VH: EVQLVESGGGLVKPGGSLRLSCAASGFTFSSKTMNWVRQAPGKGLEWVSSISTRSGYIYYARSVKGRFTISRDNAKNSLYLQMNSLRAEDTAVYYCARYGKREDMLWVFDYWGQGTLVTVSS
VL: QSALTQPPSASGSPGQTVTISCDGPSTGVGDYNYVHWYQQHPGKAPKLMIYFTSKKPSGVPDRFSGSKSGNTASLTVSGLQAEDEADYFCQTYAAPLGPMFGGGTKLTVLG
In the case of B6, the Kd worked out at 450 nM in assay [2] and 74 nM in assay [3]. For the same molecule, the “Binding to Human CTLA4” value in assay [4] was 0.005 per unit amount of antibody; in assay [5] it was 0.03 per unit amount of antibody; in assay [6], 0.108 per unit amount of antibody; in assay [7], 0.17 per unit amount of antibody.

Values taken from patent publication US20260022175A1 (Chugai, published 2026).
